{
  "source": "paper PMC10786891",
  "about": "“Massively parallel profiling of RNA-targeting CRISPR-Cas13d”",
  "data": [
    {"biological_target": "T1, EsCas13d, nuclease-dead (Eubacterium siraeum, UniProt B0MS50, R295A;H300A;R849A;H854A)", "T1 sequence": "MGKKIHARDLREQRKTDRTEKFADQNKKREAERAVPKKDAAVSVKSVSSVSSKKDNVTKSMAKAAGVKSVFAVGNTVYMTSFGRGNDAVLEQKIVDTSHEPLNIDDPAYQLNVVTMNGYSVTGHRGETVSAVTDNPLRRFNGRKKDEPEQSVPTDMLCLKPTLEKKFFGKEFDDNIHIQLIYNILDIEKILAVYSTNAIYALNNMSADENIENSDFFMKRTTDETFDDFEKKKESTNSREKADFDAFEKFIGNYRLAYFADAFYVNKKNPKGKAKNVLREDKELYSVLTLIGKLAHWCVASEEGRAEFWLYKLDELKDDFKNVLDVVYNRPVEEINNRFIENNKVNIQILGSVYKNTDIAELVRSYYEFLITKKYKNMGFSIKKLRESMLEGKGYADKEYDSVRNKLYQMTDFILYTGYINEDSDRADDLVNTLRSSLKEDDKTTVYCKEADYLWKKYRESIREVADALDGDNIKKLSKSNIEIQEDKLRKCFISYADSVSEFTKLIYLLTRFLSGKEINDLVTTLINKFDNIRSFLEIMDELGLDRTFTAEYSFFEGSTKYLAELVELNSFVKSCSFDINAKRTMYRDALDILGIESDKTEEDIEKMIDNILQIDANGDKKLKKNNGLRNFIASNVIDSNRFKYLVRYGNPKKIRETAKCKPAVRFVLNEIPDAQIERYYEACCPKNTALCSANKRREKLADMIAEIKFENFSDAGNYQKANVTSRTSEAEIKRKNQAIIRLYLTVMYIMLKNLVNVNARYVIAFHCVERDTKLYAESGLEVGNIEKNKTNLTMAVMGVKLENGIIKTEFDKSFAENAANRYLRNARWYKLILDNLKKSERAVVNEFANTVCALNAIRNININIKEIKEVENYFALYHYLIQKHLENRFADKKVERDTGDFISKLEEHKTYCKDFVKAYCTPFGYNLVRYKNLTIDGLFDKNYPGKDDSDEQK", "experiment": "crRNA (strand 1, pre-loaded); Mg2+; 40 mM Tris-HCl pH 7.5, 150 mM NaCl, 6 mM MgCl2, 1 mM DTT, 0.1% Tween-20, 0.2 mg/ml BSA; 25 C; 10 min per concentration, then washed", "conditions": "tags: His6-TwinStrep-SUMO cleaved; N-terminal SNAP kept (SNAP-Surface 488); label: 3' end held by stalled T7 RNA polymerase", "units": {"Kd": "nM"}, "values": [
      {"binder": "target 1 insG 3' of 7,insU 3' of 6 (mixed) RNA 1: CACCCGUGCAAAAAUGCAGGGGUCUAAAACUGAGCGGAUAACCUCUCUAUGG RNA 2: GGGAAUGGAUCCACAUCUACGAAUUCGUACCAUAGAGAGGUUAUCGCUGCUCACCGAGAUCGGAAGAGCACACGU", "Kd": "8.24 ± 0.34"},
      {"binder": "target 1 U10C,U11G (mixed) RNA 1: CACCCGUGCAAAAAUGCAGGGGUCUAAAACUGAGCGGAUAACCUCUCUAUGG RNA 2: GGGAAUGGAUCCACAUCUACGAAUUCGUACCAUAGAGAGGGCAUCCGCUCACCGAGAUCGGAAGAGCACACGU", "Kd": "29.2 ± 2.6"},
      {"binder": "target 1 insG 3' of 6,insG 3' of 1 (mixed) RNA 1: CACCCGUGCAAAAAUGCAGGGGUCUAAAACUGAGCGGAUAACCUCUCUAUGG RNA 2: GGGAAUGGAUCCACAUCUACGAAUUCGUACCAUAGAGAGGUUAUCCGGCUCAGCCGAGAUCGGAAGAGCACACGU", "Kd": "5.7 ± 0.4"},
      {"binder": "target 1 insG 3' of 16,insG 3' of 8 (mixed) RNA 1: CACCCGUGCAAAAAUGCAGGGGUCUAAAACUGAGCGGAUAACCUCUCUAUGG RNA 2: GGGAAUGGAUCCACAUCUACGAAUUCGUACCAUAGAGGAGGUUAUGCCGCUCACCGAGAUCGGAAGAGCACACGU", "Kd": "23.1 ± 1.9"},
      {"binder": "target 1 insC 3' of 5,insC 3' of 3 (mixed) RNA 1: CACCCGUGCAAAAAUGCAGGGGUCUAAAACUGAGCGGAUAACCUCUCUAUGG RNA 2: GGGAAUGGAUCCACAUCUACGAAUUCGUACCAUAGAGAGGUUAUCCGCCUCCACCGAGAUCGGAAGAGCACACGU", "Kd": "22.3 ± 1.8"},
      {"binder": "target 1 A1G,U10A (mixed) RNA 1: CACCCGUGCAAAAAUGCAGGGGUCUAAAACUGAGCGGAUAACCUCUCUAUGG RNA 2: GGGAAUGGAUCCACAUCUACGAAUUCGUACCAUAGAGAGGUAAUCCGCUCGCCGAGAUCGGAAGAGCACACGU", "Kd": "8.5 ± 0.6"},
      {"binder": "target 1 complement block 7-11 (mixed) RNA 1: CACCCGUGCAAAAAUGCAGGGGUCUAAAACUGAGCGGAUAACCUCUCUAUGG RNA 2: GGGAAUGGAUCCACAUCUACGAAUUCGUACCAUAGAGAGGAAUAGCGCUCACCGAGAUCGGAAGAGCACACGU", "Kd": "13.3 ± 0.6"},
      {"binder": "target 1 insU 3' of 9,insA 3' of 3 (mixed) RNA 1: CACCCGUGCAAAAAUGCAGGGGUCUAAAACUGAGCGGAUAACCUCUCUAUGG RNA 2: GGGAAUGGAUCCACAUCUACGAAUUCGUACCAUAGAGAGGUUAUUCCGCUACACCGAGAUCGGAAGAGCACACGU", "Kd": "13.1 ± 0.7"},
      {"binder": "target 1 insG 3' of 16,insA 3' of 11 (mixed) RNA 1: CACCCGUGCAAAAAUGCAGGGGUCUAAAACUGAGCGGAUAACCUCUCUAUGG RNA 2: GGGAAUGGAUCCACAUCUACGAAUUCGUACCAUAGAGGAGGUAUAUCCGCUCACCGAGAUCGGAAGAGCACACGU", "Kd": "19.7 ± 1"},
      {"binder": "target 1 insU 3' of 17,insA 3' of 11 (mixed) RNA 1: CACCCGUGCAAAAAUGCAGGGGUCUAAAACUGAGCGGAUAACCUCUCUAUGG RNA 2: GGGAAUGGAUCCACAUCUACGAAUUCGUACCAUAGUAGAGGUAUAUCCGCUCACCGAGAUCGGAAGAGCACACGU", "Kd": "28 ± 7"},
      {"binder": "target 1 insC 3' of 14,insG 3' of 8 (mixed) RNA 1: CACCCGUGCAAAAAUGCAGGGGUCUAAAACUGAGCGGAUAACCUCUCUAUGG RNA 2: GGGAAUGGAUCCACAUCUACGAAUUCGUACCAUAGAGACGGUUAUGCCGCUCACCGAGAUCGGAAGAGCACACGU", "Kd": "65 ± 11"},
      {"binder": "target 1 insG 3' of 18,insU 3' of 2 (mixed) RNA 1: CACCCGUGCAAAAAUGCAGGGGUCUAAAACUGAGCGGAUAACCUCUCUAUGG RNA 2: GGGAAUGGAUCCACAUCUACGAAUUCGUACCAUAGGAGAGGUUAUCCGCUCUACCGAGAUCGGAAGAGCACACGU", "Kd": "84 ± 26"},
      {"binder": "target 1 C7A,A9C (mixed) RNA 1: CACCCGUGCAAAAAUGCAGGGGUCUAAAACUGAGCGGAUAACCUCUCUAUGG RNA 2: GGGAAUGGAUCCACAUCUACGAAUUCGUACCAUAGAGAGGUUCUACGCUCACCGAGAUCGGAAGAGCACACGU", "Kd": "13.6 ± 0.9"},
      {"binder": "target 1 del1,del13 (mixed) RNA 1: CACCCGUGCAAAAAUGCAGGGGUCUAAAACUGAGCGGAUAACCUCUCUAUGG RNA 2: GGGAAUGGAUCCACAUCUACGAAUUCGUACCAUAGAGAGUUAUCCGCUCCCGAGAUCGGAAGAGCACACGU", "Kd": "25 ± 4"},
      {"binder": "target 1 A16G,C21A (mixed) RNA 1: CACCCGUGCAAAAAUGCAGGGGUCUAAAACUGAGCGGAUAACCUCUCUAUGG RNA 2: GGGAAUGGAUCCACAUCUACGAAUUCGUACAAUAGGGAGGUUAUCCGCUCACCGAGAUCGGAAGAGCACACGU", "Kd": "48 ± 11"},
      {"binder": "target 1 insA 3' of 3 (mixed) RNA 1: CACCCGUGCAAAAAUGCAGGGGUCUAAAACUGAGCGGAUAACCUCUCUAUGG RNA 2: GGGAAUGGAUCCACAUCUACGAAUUCGUACCAUAGAGAGGUUAUCCGCUACACCGAGAUCGGAAGAGCACACGU", "Kd": "8.8 ± 0.4"},
      {"binder": "target 1 U10A (mixed) RNA 1: CACCCGUGCAAAAAUGCAGGGGUCUAAAACUGAGCGGAUAACCUCUCUAUGG RNA 2: GGGAAUGGAUCCACAUCUACGAAUUCGUACCAUAGAGAGGUAAUCCGCUCACCGAGAUCGGAAGAGCACACGU", "Kd": "9.3 ± 0.6"},
      {"binder": "target 1 A18U,U19C (mixed) RNA 1: CACCCGUGCAAAAAUGCAGGGGUCUAAAACUGAGCGGAUAACCUCUCUAUGG RNA 2: GGGAAUGGAUCCACAUCUACGAAUUCGUACCACUGAGAGGUUAUCCGCUCACCGAGAUCGGAAGAGCACACGU", "Kd": "64 ± 16"},
      {"binder": "target 1 C7U,G12A (mixed) RNA 1: CACCCGUGCAAAAAUGCAGGGGUCUAAAACUGAGCGGAUAACCUCUCUAUGG RNA 2: GGGAAUGGAUCCACAUCUACGAAUUCGUACCAUAGAGAGAUUAUUCGCUCACCGAGAUCGGAAGAGCACACGU", "Kd": "6.9 ± 0.4"},
      {"binder": "target 1 insA 3' of 21,insG 3' of 1 (mixed) RNA 1: CACCCGUGCAAAAAUGCAGGGGUCUAAAACUGAGCGGAUAACCUCUCUAUGG RNA 2: GGGAAUGGAUCCACAUCUACGAAUUCGUACCAAUAGAGAGGUUAUCCGCUCAGCCGAGAUCGGAAGAGCACACGU", "Kd": "15.5 ± 0.8"},
      {"binder": "target 1 C2G,A20U (mixed) RNA 1: CACCCGUGCAAAAAUGCAGGGGUCUAAAACUGAGCGGAUAACCUCUCUAUGG RNA 2: GGGAAUGGAUCCACAUCUACGAAUUCGUACCUUAGAGAGGUUAUCCGCUGACCGAGAUCGGAAGAGCACACGU", "Kd": "39 ± 7"},
      {"binder": "target 1 insA 3' of 10,insG 3' of 8 (mixed) RNA 1: CACCCGUGCAAAAAUGCAGGGGUCUAAAACUGAGCGGAUAACCUCUCUAUGG RNA 2: GGGAAUGGAUCCACAUCUACGAAUUCGUACCAUAGAGAGGUUAAUGCCGCUCACCGAGAUCGGAAGAGCACACGU", "Kd": "10.1 ± 0.5"},
      {"binder": "target 1 insC 3' of 12,insA 3' of 7 (mixed) RNA 1: CACCCGUGCAAAAAUGCAGGGGUCUAAAACUGAGCGGAUAACCUCUCUAUGG RNA 2: GGGAAUGGAUCCACAUCUACGAAUUCGUACCAUAGAGAGGCUUAUCACGCUCACCGAGAUCGGAAGAGCACACGU", "Kd": "12.7 ± 0.5"},
      {"binder": "target 1 insA 3' of 17,insC 3' of 5 (mixed) RNA 1: CACCCGUGCAAAAAUGCAGGGGUCUAAAACUGAGCGGAUAACCUCUCUAUGG RNA 2: GGGAAUGGAUCCACAUCUACGAAUUCGUACCAUAGAAGAGGUUAUCCGCCUCACCGAGAUCGGAAGAGCACACGU", "Kd": "32.2 ± 2.7"},
      {"binder": "target 1 C7G,G15U (mixed) RNA 1: CACCCGUGCAAAAAUGCAGGGGUCUAAAACUGAGCGGAUAACCUCUCUAUGG RNA 2: GGGAAUGGAUCCACAUCUACGAAUUCGUACCAUAGAUAGGUUAUGCGCUCACCGAGAUCGGAAGAGCACACGU", "Kd": "30 ± 4"},
      {"binder": "target 1 U8G,A9C (mixed) RNA 1: CACCCGUGCAAAAAUGCAGGGGUCUAAAACUGAGCGGAUAACCUCUCUAUGG RNA 2: GGGAAUGGAUCCACAUCUACGAAUUCGUACCAUAGAGAGGUUCGCCGCUCACCGAGAUCGGAAGAGCACACGU", "Kd": "11 ± 0.6"},
      {"binder": "target 1 del2,del13 (mixed) RNA 1: CACCCGUGCAAAAAUGCAGGGGUCUAAAACUGAGCGGAUAACCUCUCUAUGG RNA 2: GGGAAUGGAUCCACAUCUACGAAUUCGUACCAUAGAGAGUUAUCCGCUACCGAGAUCGGAAGAGCACACGU", "Kd": "11.7 ± 0.4"},
      {"binder": "target 1 A1C,U10A (mixed) RNA 1: CACCCGUGCAAAAAUGCAGGGGUCUAAAACUGAGCGGAUAACCUCUCUAUGG RNA 2: GGGAAUGGAUCCACAUCUACGAAUUCGUACCAUAGAGAGGUAAUCCGCUCCCCGAGAUCGGAAGAGCACACGU", "Kd": "26.2 ± 2.2"}
    ]}
  ]
}
